T1: GST-fusion protein containing amino acids 696-902 of human cdc4
T1 sequence: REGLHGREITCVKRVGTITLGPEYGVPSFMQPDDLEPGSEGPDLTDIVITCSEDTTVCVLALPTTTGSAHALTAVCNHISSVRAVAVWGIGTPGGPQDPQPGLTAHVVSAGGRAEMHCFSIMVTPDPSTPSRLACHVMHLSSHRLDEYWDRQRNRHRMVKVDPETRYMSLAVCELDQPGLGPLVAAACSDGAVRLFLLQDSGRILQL


Tests used:
[1] = test system: T1, GST-fusion protein containing amino acids 696-902 of human cdc4
[2] = biological target: T2, human p19 skp1, expressed as a LexA fusion protein from vector pBTM116 (human, UniProt P63208 1-163, limits assumed); assay: yeast two-hybrid (LexA-skp1 bait, mouse cDNA-VP16 library)
T2 construct: Bait of the yeast two-hybrid screen in S. cerevisiae L40; also called human skp1
T2 sequence (P63208 whole entry, the tested form may be a part): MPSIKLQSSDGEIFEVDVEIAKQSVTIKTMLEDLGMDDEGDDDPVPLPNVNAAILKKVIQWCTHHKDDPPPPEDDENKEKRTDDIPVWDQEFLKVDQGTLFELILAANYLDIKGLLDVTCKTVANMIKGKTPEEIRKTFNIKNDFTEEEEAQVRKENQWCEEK
Description: A full length cDNA encoding a mouse homolog of yeast cdc4 protein was cloned through its ability to specifically interact with human p19 skp1 in a yeast two hybrid system. Briefly, human skp1 was cloned into the vector pBTM116 for expression as a LexA fusion protein. This construct was transformed into S. Cerevisiae strain L40 (MATa his3 200 trp1-900 leu2-3,112 ade LYS2::lexAop)₄-HIS3 URA3::(lexAop)₈-lacZ GAL4). Skp1 interacting clones were selected in the presence of 1 mM 3-aminotriazole after transformation of a mouse cDNA-VP16 fusion library. Specificity of the interacting clones was assessed with the D. Melanogaster daughterless gene.

| Molecule | in vitro ubiquitination reaction (E1, E2, biotinylated ubiquitin; streptavidin-HRP after non-reducing SDS-PAGE) [1] | binding result [2] |
| --- | --- | --- |
| UBC2 | though to a lesser extent, UBC2 |  |
| UBC4 | cdc4 polypeptide was found to be ubiquitinated by UBC4 |  |
| mouse cdc4 (clone from a mouse cDNA-VP16 fusion library; 486 base pair fragment) (other, not shown: large carriers, VP16 is placed first from knowledge of such libraries; also called mu-cdc4; mcdc4) TFTHEAPNQRRRLILCSAATDGSLAFWDLTTAMDKGSTTLELPAHPGLPYQMGTPSMTVQAHSCGVNSLHTLPTPEGHHLVASGSEDGSLHVFTLAVKMPEPEEADGEAELVPQLCVLEEYSVPCAHAAHVTGVKILSPKLMVSASIDQRLTFWRLGQGEPP |  | binds |
